{
  "source": "patent US20260265354A1",
  "about": "(JIANGSU MABWELL HEALTH PHARMACEUTICAL R AND D, published 2026)",
  "binders": {"B1": {"name": "Antibody MM11 (antibody, mouse IgG1, kappa, V domains shown)", "VH": "DVQLQESGPGLVKPSQSLSLTCSVTGYSITSNFYWNWIRQFPGNRLEWMGYISYDGSNNYNPSLKNRISISRDTSKNQFFLKLNSVTTEDTATYYCVRADYWGQGTLVTVSA", "VL": "DTVMTQTPLSLPVSLGDQASISCRSSQSLESSDGHAYLNWYLQKPGQSPQLLIYRVSNRFSGVLHRFSGSGSGTDFTLKISRVEAEDLGVYFCLQFTHVPFTFGSGTKLEIKR", "notes": "Mouse monoclonal antibody from hybridoma; also called Nectin-4 mouse monoclonal antibody MM11; mouse antibody MM11"}, "B2": {"name": "Antibody R012 (antibody, V domains shown)", "VH": "SKSVEESGGRLVTPGTPLTLTCTVSGFSLSTYAMSWVRQAPGKGLEYIGIISGRGTTYYASWLKGRFTISKTSTTVDLKITSPTTEDTATYFCARDAGISDVYTGYFNLWGQGTLVTVSS", "VL": "QPVLAQLPSASAALGASAKLTCTLSSAHRTYTIAWYQQQQGEAPRYLMMLKSDGSYTKGTGVPDRFSGSSSGADRYLIISSVQAADEADYYCGADDSGGYVFGGGTQLTVTG", "notes": "Rabbit monoclonal antibody from phage display; also called Nectin-4 rabbit monoclonal antibody R012; rabbit antibody R012"}, "B3": {"name": "Antibody R036 (antibody, V domains shown)", "VH": "SQSVEESGGRLVTPGTPLTLTCTVSGFSLSSYAMSWVRQAPGKGLEYIGIIGGRGTTYYAIWAKGRFTISKTSTTVDLKITSPTTEDTATYFCARDAGTTYVGTTYVATGYFNLWGQGTLVTVSS", "VL": "B2 VL with A5T, L7P, R29K, M49I, K58R, A85D", "notes": "Rabbit monoclonal antibody from phage display; also called Nectin-4 rabbit monoclonal antibody R036; rabbit antibody R036"}},
  "note": "Changes are numbered by the printed parent chain.",
  "data": [
    {"target": "T1, recombinant human Nectin-4 protein (human, UniProt Q96NY8 32-349)", "T1 construct": "Prepared in-house (Jiangsu Mabwell) by transient transfection of CHO cells; also called PVRL-4; PRR-4", "T1 sequence": "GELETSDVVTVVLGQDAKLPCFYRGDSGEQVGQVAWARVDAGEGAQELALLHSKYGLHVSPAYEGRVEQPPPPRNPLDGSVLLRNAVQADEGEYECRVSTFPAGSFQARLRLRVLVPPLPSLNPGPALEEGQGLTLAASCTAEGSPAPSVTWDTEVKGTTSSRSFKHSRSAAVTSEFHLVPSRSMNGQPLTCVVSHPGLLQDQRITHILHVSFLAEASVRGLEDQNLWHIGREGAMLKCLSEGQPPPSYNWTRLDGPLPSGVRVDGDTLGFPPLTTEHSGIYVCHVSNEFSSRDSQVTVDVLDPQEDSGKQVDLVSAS", "assay": "ELISA, coated antigen, 0 ng/ml antibody (blank control)", "protocol": "(§1) Coating: Nectin-1, Nectin-2, Nectin-3, Nectin-4, Nectin-like-1, Nectin-like-2, Nectin-like-3, Nectin-like-4, and Nectin-like-5 were diluted to 5 μg/ml in coating buffer (carbonate buffer, pH 9.6) respectively. A 96-well plate was coat with 100 μl per well and incubated overnight at 2-8° C.;\n(§2) Sample loading: The plate was taken out, patted dry, and washed twice with 200 μl/well of PBST, then patted dry. The Nectin-4 antibodies prepared in Example 1 (antibody MM11, antibody R012, and antibody R036) were diluted with 1% BSA/PBST to concentrations of 10 μg/ml, 1 μg/ml, 100 ng/ml, and 10 ng/ml, respectively. 1% BSA/PBST solution for dilution was set as a blank control. 100 μl per well was added to the 96-well plate, and incubated at room temperature for 2 hours;\n(§3) Reaction termination and plate reading: 100 μl/well of 1 mol/L H3PO4 was added to terminate the reaction and the plated was read. The absorbances of wells in the plate at 450 nm with 650 nm as reference wavelength were read and recorded as OD_{450 nm-650 nm}.", "units": {"OD detection value": "OD450 nm-650 nm"}, "values": [
      {"binder": "B1", "OD detection value": 0.008},
      {"binder": "B2", "OD detection value": 0.008},
      {"binder": "B3", "OD detection value": 0.007}
    ]},
    {"target": "T2, Nectin-like-1 (UniProt Q8N126 25-330, limits assumed)", "T2 construct": "Bought recombinant protein; also called CADM3; IgSF4B", "T2 sequence (looked up)": "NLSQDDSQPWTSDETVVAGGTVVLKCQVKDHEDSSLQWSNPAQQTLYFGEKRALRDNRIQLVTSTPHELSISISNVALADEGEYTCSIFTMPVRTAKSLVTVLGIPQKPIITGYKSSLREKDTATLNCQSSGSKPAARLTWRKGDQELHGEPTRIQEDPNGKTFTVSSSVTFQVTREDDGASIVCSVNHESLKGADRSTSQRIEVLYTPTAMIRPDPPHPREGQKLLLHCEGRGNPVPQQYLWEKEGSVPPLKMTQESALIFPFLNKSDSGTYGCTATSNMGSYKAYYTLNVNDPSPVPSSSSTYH", "assay": "ELISA, coated antigen, 0 ng/ml antibody (blank control)", "protocol": "as §1, §2, §3", "units": {"OD detection value": "OD450 nm-650 nm"}, "values": [
      {"binder": "B1", "OD detection value": 0.007},
      {"binder": "B2", "OD detection value": 0.008},
      {"binder": "B3", "OD detection value": 0.007}
    ]},
    {"target": "T3, Nectin-like-2 (UniProt Q9BY67 45-374, limits assumed)", "T3 construct": "Bought recombinant protein; also called CADM1; IgSF4", "T3 sequence (looked up)": "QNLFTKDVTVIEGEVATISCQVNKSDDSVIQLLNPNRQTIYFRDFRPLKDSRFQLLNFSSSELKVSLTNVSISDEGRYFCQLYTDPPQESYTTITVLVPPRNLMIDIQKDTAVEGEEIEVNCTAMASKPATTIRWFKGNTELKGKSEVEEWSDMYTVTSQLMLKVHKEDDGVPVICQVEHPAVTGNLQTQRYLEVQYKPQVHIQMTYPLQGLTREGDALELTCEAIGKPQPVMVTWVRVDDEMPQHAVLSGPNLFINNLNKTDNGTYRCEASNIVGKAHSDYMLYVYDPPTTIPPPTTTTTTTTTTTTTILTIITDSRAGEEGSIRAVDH", "assay": "ELISA, coated antigen, 0 ng/ml antibody (blank control)", "protocol": "as §1, §2, §3", "units": {"OD detection value": "OD450 nm-650 nm"}, "values": [
      {"binder": "B1", "OD detection value": 0.006},
      {"binder": "B2", "OD detection value": 0.008},
      {"binder": "B3", "OD detection value": 0.007}
    ]},
    {"target": "T4, Nectin-2 (UniProt Q92692 32-360, limits assumed)", "T4 construct": "Bought recombinant protein; also called CD112; PVRL-2", "T4 sequence (looked up)": "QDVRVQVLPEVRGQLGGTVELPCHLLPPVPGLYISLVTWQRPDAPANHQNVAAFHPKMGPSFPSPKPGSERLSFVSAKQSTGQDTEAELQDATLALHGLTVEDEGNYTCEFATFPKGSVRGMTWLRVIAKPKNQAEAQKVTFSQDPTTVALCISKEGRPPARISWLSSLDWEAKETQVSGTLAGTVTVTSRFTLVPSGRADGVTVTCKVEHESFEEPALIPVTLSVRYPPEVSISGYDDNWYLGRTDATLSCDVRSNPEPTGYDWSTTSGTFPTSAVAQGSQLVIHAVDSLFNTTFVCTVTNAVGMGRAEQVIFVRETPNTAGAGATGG", "assay": "ELISA, coated antigen, 0 ng/ml antibody (blank control)", "protocol": "as §1, §2, §3", "units": {"OD detection value": "OD450 nm-650 nm"}, "values": [
      {"binder": "B1", "OD detection value": 0.007},
      {"binder": "B2", "OD detection value": 0.009},
      {"binder": "B3", "OD detection value": 0.007}
    ]},
    {"target": "T1, recombinant human Nectin-4 protein", "assay": "ELISA, coated antigen, antibody at 1000 ng/ml", "protocol": "as §1, §2, §3", "units": {"OD detection value": "OD450 nm-650 nm"}, "values": [
      {"binder": "B1", "OD detection value": 2.05},
      {"binder": "B2", "OD detection value": 1.56},
      {"binder": "B3", "OD detection value": 1.64}
    ]},
    {"target": "T5, Nectin-3 (UniProt Q9NQS3 58-404, limits assumed)", "T5 construct": "Bought recombinant protein; also called CD113; PVRL-3", "T5 sequence (Q9NQS3 58-404 limits assumed)": "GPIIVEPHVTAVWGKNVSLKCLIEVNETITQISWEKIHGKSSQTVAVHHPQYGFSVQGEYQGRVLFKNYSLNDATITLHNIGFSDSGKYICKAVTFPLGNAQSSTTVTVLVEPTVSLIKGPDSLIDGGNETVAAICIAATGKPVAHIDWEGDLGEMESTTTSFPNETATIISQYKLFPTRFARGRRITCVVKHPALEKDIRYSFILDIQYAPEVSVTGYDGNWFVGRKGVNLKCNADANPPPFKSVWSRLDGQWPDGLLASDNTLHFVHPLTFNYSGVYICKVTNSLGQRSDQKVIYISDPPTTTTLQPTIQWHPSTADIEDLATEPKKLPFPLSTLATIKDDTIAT", "assay": "ELISA, coated antigen, antibody at 1000 ng/ml", "protocol": "as §1, §2, §3", "units": {"OD detection value": "OD450 nm-650 nm"}, "values": [
      {"binder": "B1", "OD detection value": 0.008},
      {"binder": "B2", "OD detection value": 0.007},
      {"binder": "B3", "OD detection value": 0.007}
    ]},
    {"target": "T3, Nectin-like-2", "assay": "ELISA, coated antigen, antibody at 1000 ng/ml", "protocol": "as §1, §2, §3", "units": {"OD detection value": "OD450 nm-650 nm"}, "values": [
      {"binder": "B1", "OD detection value": 0.008},
      {"binder": "B2", "OD detection value": 0.007},
      {"binder": "B3", "OD detection value": 0.006}
    ]},
    {"target": "T6, Nectin-1 (UniProt Q15223 31-334, limits assumed)", "T6 construct": "Bought recombinant protein; also called CD111; PVRL-1", "T6 sequence (looked up)": "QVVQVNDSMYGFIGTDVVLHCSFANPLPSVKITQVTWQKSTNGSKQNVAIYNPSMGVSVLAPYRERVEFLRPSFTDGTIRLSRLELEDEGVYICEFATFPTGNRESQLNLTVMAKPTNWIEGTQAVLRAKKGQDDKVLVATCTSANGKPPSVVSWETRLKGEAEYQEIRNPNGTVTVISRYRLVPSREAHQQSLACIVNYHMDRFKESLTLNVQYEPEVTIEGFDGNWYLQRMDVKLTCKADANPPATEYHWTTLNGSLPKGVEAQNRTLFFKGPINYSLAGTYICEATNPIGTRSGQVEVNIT", "assay": "ELISA, coated antigen, antibody at 1000 ng/ml", "protocol": "as §1, §2, §3", "units": {"OD detection value": "OD450 nm-650 nm"}, "values": [
      {"binder": "B1", "OD detection value": 0.007},
      {"binder": "B2", "OD detection value": 0.007},
      {"binder": "B3", "OD detection value": 0.006}
    ]}
  ]
}
